Read-outs that look alike come from different tables or passages of the source.
Columns and labels:
[1] = molecular target: prefusion stabilized trimeric SARS-CoV-2 spike protein ectodomain (SARS-CoV-2) (UniProt P0DTC2)
[2] = molecular target: prefusion stabilized trimeric SARS-CoV-2 spike protein ectodomain (SARS-CoV-2) (UniProt P0DTC2); remark: listed apart in the source
[3] = molecular target: prefusion stabilized trimeric SARS-CoV-2 spike protein ectodomain (SARS-CoV-2) (UniProt P0DTC2); remark: listed apart in the source
[4] = molecular target: prefusion stabilized trimeric SARS-CoV-2 spike protein ectodomain (SARS-CoV-2) (UniProt P0DTC2); remark: listed apart in the source
[5] = molecular target: prefusion stabilized trimeric SARS-CoV-2 spike protein ectodomain (SARS-CoV-2) (UniProt P0DTC2); assay: ELISA, S-ECD coated on plate, ACE2 protein titrated, anti-GFP detection

## ACE2-short-foldon (from UniProt Q9BYF1 18-615) (receptor)
[1]
  IC50: 50 pM
[2]
  Kd: 530 pM

## ACE2-flexible-3HB (from UniProt Q9BYF1 18-615) (receptor)
[3]
  IC50: 60 pM
[4]
  Kd: 4400 pM
[2]
  Kd: 1310 pM

## ACE2-rigid-foldon (from UniProt Q9BYF1 18-615) (receptor)
[5]
  IC50: 30 pM
[2]
  Kd: < 1 pM

## Monomeric ACE2 (ACE2 (18-615)-(GGGGS)5-HRV3C-eGFP-His8) (from UniProt Q9BYF1 18-615) (receptor)
[3]
  IC50: 26600 pM
[4]
  Kd: 34000 pM
[5]
  IC50: 27000 pM

## ACE2-flexible-foldon (from UniProt Q9BYF1 18-615) (receptor)
[3]
  IC50: 70 pM
[4]
  Kd: 340 pM
[2]
  Kd: 520 pM

## ACE2-rigid-3HB (from UniProt Q9BYF1 18-615) (receptor)
[5]
  IC50: 30 pM
[2]
  Kd: < 1 pM

Reference: patent publication US20240035012A1
